We go through one substance from article PMC6079010.

This test addresses catalytic domain of KAT2A (as crystallised, apo and with succinyl-CoA). As to the kind of experiment: crystal structure; apo (space group P4_(1)2_(1)2) and succinyl-CoA-complexed (P2_(1)3) crystals of the catalytic domain, grown at pH 4.6; octahedral assembly seen in both.

By stoichiometry N is commonly meant a count of units in the complex or per binding partner. “catalytic domain of KAT2A (as crystallised, apo and with succinyl-CoA) (domain or fragment)” registered a stoichiometry N of 24.
